In this series the test system is GST-p180-Lys (p180 lysine-rich region). Briefly: EMSA. The note with it: PBS with 10 ug/ml denatured yeast tRNA, room temperature, 20 min; native 10% PAGE (19:1) in TBE; pH not stated. For orientation: In EMSA bound probe runs differently from free probe, usually more slowly.

A word on the Kd: it is a measure of binding affinity in units of concentration. Read a low Kd as a tighter complex. On to human insulin SSCR RNA, for which the Kd stood at 800 nM.

The values are drawn from paper PMC3362647.
